Data on one molecule can be found in PMC1925066, “Optical biosensor differentiates signaling of endogenous PAR1 and PAR2 in A431 cells” (BMC Cell Biology, 2007).

Series [1] relates to endogenous PAR1 and PAR2 in A431 cells. Kind of series: Fluo-3 Ca2+ mobilization (Ca2+ flux) assay in quiescent A431 cells. In kind it is cell-based, human. Here is the method: (§1) Human epidermoid carcinoma A431 cells ([…]) were grown in Dulbecco's modified Eagle's medium (DMEM) supplemented with 10% fetal bovine serum (FBS), 4.5 g/liter glucose, 2 mM glutamine, and antibiotics. ~5 × 10^4 cells at passage 3 to 8 suspended in 200 μl the DMEM medium containing 10% FBS were placed in each well of a 96well microplate, and were cultured at 37°C under air/5% CO2 for ~2 days, followed by ~20 hr starvation through continuously culturing in the serum-free DMEM.
Cells were grown in Costar™ 96well clear cell culture microplates. After starvation, the cells were washed with 1× HBSS (1× regular Hank's balanced salt solution, 20 mM HEPES buffer, pH 7.0) in the presence of 2.5 mM probenicid, and labeled in the same buffer containing 4 μM Fluo-3 for 1 hour at room temperature. The cells were then washed twice with buffer, maintained with 100 μl 1× HBSS containing 2.5 mM probenicid. The assay was initiated by transferring 50 μl PAR agonist solution to the cell plate, and calcium signal was recorded over 6 minutes with a 6 sec interval using HTS7000 BioAssay Reader (PerkinElmer Life Science, Boston, MA). The fluorescent intensity before stimulation was recorded and used as a baseline. The percentage increase in fluorescence intensity after stimulation, relative to the baseline fluorescence, was analyzed and used directly as a measure for the increase of intracellular Ca^2+ level induced by PAR agonists.
(§2) Unless specifically mentioned, three replicates were carried out for each measurement or each compound. The standard deviation was derived from these measurements (n = 3). […] All dose-dependent responses were analyzed using non-linear regression method with the Prism software (Graph Pad).

Series [2] shares this test system. As to the kind of experiment: MRCAT resonant waveguide grating biosensor DMR assay in quiescent A431 cells. It is filed as cell-based, human. The following applies: for EC50: A431 cells. On the procedure:
as §1
Corning® Epic™ angular interrogation system with transverse magnetic or p-polarized TM0 mode was used for all studies. The detailed instrumental setup and assay protocols had been previously described. Briefly, all compound solutions were prepared using 1 × HBSS containing minimal amount of dimethyl sulfoxide, while the starved cells were washed and maintained with 100 μl the serum-free DMEM. The cells were then treated with 50 μl 1 × HBSS buffered solution in the absence and presence of a compound, followed by stimulation with ligand solutions. The cellular responses were monitored in real time throughout the assays.
as §2

The next series has as its system A431 cells. Further details: method as in PMID 16766609. The following applies: doses greater than ~1000 nM; cited from earlier work.

B1: Trypsin: serine protease, PAR2 agonist, purchased from Sigma (protein, UniProt P00760 24-246, looked up)
Serine protease 1: IVGGYTCGANTVPYQVSLNSGYHFCGGSLINSQWVVSAAHCYKSGIQVRLGEDNINVVEGNEQFISASKSIVHPSYNSNTLNNDIMLIKLKSAASLNSRVASISLPTSCASAGTQCLISGWGNTKSSGTSYPDVLKCLKAPILSDSSCKSAYPGQITSNMFCAGYLEGGKDSCQGDSGGPVVCSGKLQGIVSWGSGCAQKNKPGVYTKVCNYVSWIKQTIASN
What is called EC50 is the concentration giving half of the maximal effect. For the molecule B1, the “maximal [Ca^2+]i elevation” value in series [1] (A431 cells, SFLLR-amide at 80 μM) was found to be 100 ± 6%. The EC50 in series [1] (A431 cells, read-out: EC50 (n = 3) Ca^2+ flux assay) was 45.7 ± 5.8 nM; in series [2] (amplitude of N-DMR event, read-out: EC50 (n = 3) N-DMR), 102 ± 21.9 nM; in series [2] (amplitude of P-DMR event, read-out: EC50 (n = 3) P-DMR), 98 ± 27.8 nM. For the same molecule, the “responsiveness (Ca^2+ mobilization) after pre-stimulation with thrombin” value in series [1] (thrombin 40 unit/ml first, separated by 6 min) was “only partially”. Besides, the “Ca^2+ mobilization response after pre-stimulation with trypsin” value in series [1] (trypsin 200 nM first, repeated stimulation separated by 6 min) is recorded as “completely blocked”. Besides, in series [2] (trypsin 200 nM first, repeated stimulation separated by ~1 hr), the “desensitization of trypsin-treated cells (DMR signal)” value is “completely desensitized”. Further, the cell detachment entry in the series on A431 cells is reported as “significant cell detachment”.
